Results: PMC7673798 (Science Advances, 2020)

Biological target: the molecule itself
Experiment: cryo-EM structure

B1: OpuA polypeptide with the nucleotide-binding domain (NBD) fused to a tandem CBS domain, E190Q (natural protein, Lactococcus lactis, UniProt Q9KIF7 1-408, looked up)
chain: MPVKIKIEHLTKIFGKRIKTALTMVEKGEPKNEILKKTGATVGVYDTNFEINEGEIFVIMGLSGSGKSTLLRLLNRLIEPTSGKIFIDNQDVATLNKEDLLQVRRKTMSMVFQNFGLFPHRTILENTEYGLEVQNVPKEERRKRAEKALDNANLLDFKDQYPKQLSGGMQQRVGLARALANDPEILLMDQAFSALDPLIRREMQDELLELQAKFQKTIIFVSHDLNEALRIGDRIAIMKDGKIMQIGTGEEILTNPANDYVKTFVEDVDRAKVITAENIMIPALTTNIDVDGPSVALKKMKTEEVSSLMAVDKKRQFRGVVTSEQAIAARKNNQPLKDVMTTDVGTVSKEMLVRDILPIIYDAPTPLAVVDDNGFLKGVLIRGSVLEALADIPDEDEVEEIEKEEENK
B1: binds.
